Here are results for 53 sequences from the supplement of paper PMC10567573.

± gives the standard deviation.

A short description of the series: protein stability index of a GFP-peptide fusion (GPS, HEK-293T) (PSI 1-6); higher = more stable.
Where [1] appears, read: treatment: DMSO, c terminus: a fixed tail appended.
[2] abbreviates: treatment: MLN4924 1 uM, 8 h, c terminus: a fixed tail appended.
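Note: 24-mer peptide tiles fused after GFP, lentivirally expressed, FACS-sorted into six equal bins by GFP/DsRed ratio, decoded by Illumina sequencing, PSI is the read-weighted mean bin number.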

As to CQGQRLFEKLLQLTSQNIEIKLVS [PLD5], the protein stability index turned out to be 2.35 ± 0.19 under setting [1] and 2.29 ± 1.3 under setting [2].
Regarding CQVEVRLLLAYNSSARIPKCPWME [INTS4], the protein stability index by setting is: under setting [1], 3.21 ± 0.91; under setting [2], 3.1 ± 0.25.
The like results for CSKQSGSFRKFRYGYNNVVTIPAG [ADAMTS4] were, in that order, 2.3 ± 0.44 and 2.23 ± 0.35.
The like results for CSPALKRSHSDSLDHDIFQLIDPD [CDC25A] were, in that order, 3.76 ± 0.34 and 3.72 ± 0.41.
The like results for CSYVVTRTISCHVQNGTYLQRVLQ [EMID1] were, in that order, 2.44 ± 0.53 and 2.6 ± 0.36.
As to CVADNTNLYVFGGYNPDYDESGGP [KLHDC10], the protein stability index turned out to be 3.26 ± 0.14 under setting [1] and 3.18 ± 0.34 under setting [2].
With CWDMYRHDIDCQWVDITDVPPGDY [LOXL2], the protein stability index was determined as 2.7 ± 0.36 under setting [1] and 3.11 ± 0.3 under setting [2].
With CWQGDPRVRPTFQEITSETEDLCE [RIPK4], the protein stability index runs as follows: under setting [1], 4.44 ± 0.67; under setting [2], 4.72 ± 0.24.
The like results for DALGMDPMMEHEMGGHHPGADYPV [CTNNB1] were, in that order, 4.51 ± 0.36 and 4.55 ± 0.16.
For the sequence DAQGSEMVTCKSEFYHDEFKRWIY [GAN], the protein stability index is 2.61 ± 0.46 under setting [1] and 2.52 ± 0.13 under setting [2].
Regarding DDTPEVLNRALSNLSSRWKNWWVR [CDS2], the protein stability index reads like this: under setting [1], 2.89 ± 0.058; under setting [2], 3.12 ± 0.25.
For the sequence DEDEVAAEEPNAAVPDEIPPLEGD [HSP90AB1], the protein stability index is 5.49 ± 0.47 under setting [1] and 5.61 ± 0.24 under setting [2].
Regarding DEHIASEEPAEKEDLLQQMLERRY [CLCN6], the protein stability index was 5.03 ± 0.2 under setting [1] and 4.98 ± 0.16 under setting [2].
The like results for DEIEFLKKLHEEELRDLQVSVESQ [PRPH] were, in that order, 3.58 ± 0.7 and 4.07 ± 0.36.
With DFANTIPGHGGIMDRFDCQYLMAT [CDS1], the protein stability index turned out to be 2.42 ± 0.21 under setting [1] and 2.63 ± 0.42 under setting [2].
DFCKVFLISGVTLDNCVEVGRIAN [KLHL13] registered a protein stability index under setting [1] of 2.47 ± 1.2 and a protein stability index under setting [2] of 2.12 ± 0.47.
As for DFFWNETWYLKTIDICHDHFGWYL [DHCR7], the protein stability index was 3.26 ± 0.74 under setting [1] and 2.81 ± 0.35 under setting [2].
Regarding DGEVPQHAGKKGKLSEHLRYCDSI [BRD3], the protein stability index came to 4.59 ± 0.23 under setting [1] and 4.76 ± 0.23 under setting [2].
The like results for DGLREQLQAPVPPDSVPSLQNMGL [PBXIP1] were, in that order, 4.45 ± 0.1 and 4.4 ± 0.15.
The like results for DIELDAARGDAVCTACGSVLEDNI [BRF1] were, in that order, 4.88 ± 0.15 and 5.01 ± 0.37.
As to DIEMSMRGDIFERIVHLQETCDLG [NLN], the protein stability index is, setting by setting: under setting [1], 3.26 ± 0.47; under setting [2], 3.22 ± 0.36.
The like results for DIKICALGEEWSLHKIYLCQSGYF [GMCL1] were, in that order, 2.91 ± 0.62 and 2.62 ± 0.49.
The like results for DITVSVSTSFLPELSSVHPPHYFF [FBXO3] were, in that order, 2.79 ± 0.48 and 2.63 ± 0.58.
The like results for DKFVIVDCRYPYEYEGGHIKTAVN [CDC25B] were, in that order, 2.48 ± 0.28 and 2.21 ± 0.23.
For the sequence DKSEYLEMEEGVKESLCAKEEKCQ [KCNA4], the protein stability index is, setting by setting: under setting [1], 5.68 ± 0.1; under setting [2], 5.54 ± 0.19.
Consider DKYVGVSSDSVGGFRYSERYDPEP [CLINT1], for which the protein stability index is 4.22 ± 0.23 under setting [1] and 4.27 ± 0.35 under setting [2].
Turning to DLESQVESLREELICLKKNHEEEV [KRT34], the protein stability index reads like this: under setting [1], 4.86 ± 0.24; under setting [2], 5.13 ± 0.16.
Consider DLLKKAKFHHSDCLSTWLLHFIAT [RHOBTB3], for which the protein stability index was determined as 2.37 ± 0.44 under setting [1] and 2.34 ± 0.41 under setting [2].
The like results for DLLSCSNFAVQHRYLFEEDNLLRS [MATN2] were, in that order, 2.42 ± 0.18 and 2.43 ± 0.47.
For the sequence DLPSSLLLPEDMALRNLPPLRAAH [SMG5], the protein stability index amounted to 3.56 ± 0.29 under setting [1] and 3.44 ± 0.16 under setting [2].
The like results for DLSVPLMDVGETAMVTADSKYCYG [FKBP8] were, in that order, 4.1 ± 0.31 and 4.44 ± 0.22.
The like results for DMERFMEEMRELRRKIRELQLRYS [BEX5] were, in that order, 2.44 ± 0.36 and 2.56 ± 0.6.
Turning to DMKYGIYAVENEHMNRLQSQRAML [VTI1B], the protein stability index is, setting by setting: under setting [1], 2.72 ± 0.25; under setting [2], 2.93 ± 0.31.
On to DQEPLLSIDLGTAHSAAVTASGDC [NEK8], for which the protein stability index by setting is: under setting [1], 5.07 ± 0.32; under setting [2], 5.17 ± 0.26.
The like results for DRDPNSLLISCAVSYRGAWWYRNC [TNXB] were, in that order, 2.83 ± 0.24 and 2.77 ± 0.98.
As to DREVDAATSATSHTRSLNSIIHQM [FBF1], the protein stability index by setting is: under setting [1], 4.09 ± 0.15; under setting [2], 4.21 ± 0.28.
The like results for DSSNPYPNFNFNISHQGDYAVLAA [AASDHPPT] were, in that order, 3.24 ± 0.36 and 3.42 ± 0.41.
The like results for DSTLSYTETEATNSLITAPGEFSD [SMAD6] were, in that order, 5.34 ± 0.2 and 5.39 ± 0.17.
With DSTWLLLRRIRAESGTKGLFAGFL [SLC25A39], the protein stability index reads like this: under setting [1], 2.63 ± 0.67; under setting [2], 2.58 ± 0.53.
The like results for DTKGKPTSRTQVYKPPALKKSNSP [ZC2HC1A] were, in that order, 4.89 ± 0.22 and 4.94 ± 0.18.
Sequence DTRLGQVSALPLPPAMKRYLLYQ [SPSB2] showed a protein stability index (treatment: DMSO, c terminus: native) of 2.4 ± 0.42 and a protein stability index (treatment: MLN4924 1 uM, 8 h, c terminus: native) of 2.69 ± 0.3.
Regarding DTRSGFWYVCRTQGVEGDHCVTSD [TRIM35], the protein stability index by setting is: under setting [1], 2.89 ± 0.31; under setting [2], 3.08 ± 0.34.
The like results for DVGENLTVPDEFTVEERQTGMWWR [SLC25A25] were, in that order, 4.18 ± 0.14 and 4.16 ± 0.28.
The like results for DYELLQMLQIVVGVRDSGSPPLHA [PCDHGC5] were, in that order, 2.3 ± 0.41 and 2.18 ± 0.17.
The like results for DYSREVNTTEELEALITDPDEMRM [FEM1A] were, in that order, 5.11 ± 0.21 and 5.17 ± 0.18.
Consider EAFKKHSLDLLSKERELNGKLRHL [CCDC89], for which the protein stability index under setting [1] amounted to 3.34 ± 0.25 and the protein stability index under setting [2] turned out to be 3.38 ± 0.14.
The sequence EAMLYHNQTAELRELLEFTHMYLQ [P3H4] returned a protein stability index under setting [1] of 2.48 ± 0.37 and a protein stability index under setting [2] of 2.69 ± 0.62.
On to EDDDWGEDTTEEAQRRRMDEISDH [EIF5], for which the protein stability index came to 5.59 ± 0.24 under setting [1] and 5.34 ± 0.18 under setting [2].
The like results for EDERVVGKEQGQNLARQWNNCAFL [RAP1B] were, in that order, 4.23 ± 0.23 and 4.09 ± 0.25.
On to EDGVWYSVAPMNVRRGLAGATTLG [KLHL12], for which the protein stability index is 3.17 ± 0.23 under setting [1] and 3.3 ± 0.17 under setting [2].
Regarding EDIVFETDHILESLYRDIRDIQDE [STX11], the protein stability index came out at 4.08 ± 0.12 under setting [1] and 4.31 ± 0.14 under setting [2].
The like results for EDNEREGTENGAIDAVPVDENLFT [ZC3H15] were, in that order, 5.54 ± 0.15 and 5.68 ± 0.23.
The like results for EDWVLLGMANGQQWLQSTSGSQRH [TLE6] were, in that order, 3.41 ± 0.5 and 3.2 ± 0.4.
